Values of other authors in article PMC2868910.

Molecular target: thrombomodulin (Homo sapiens) (UniProt P07204)

- Kd: 0.5 nM
Substance: thrombin (from UniProt P00734)
